According to article PMC11532494 (Nature Communications, 2024):
Values joined by “and” are separate entries in the source; they are usually repeats but may differ in a detail not shown here. Equal values may be shown once. No end group written: not given here. *: point of attachment. AMC = Cc1cc(=O)oc2cc(N*)ccc12

Molecular target: LpApaH (3) (Legionella pneumophila, UniProt A0A2S6EWV0)
Type: biochemical

| Substance | [AMC] |
| --- | --- |
| QPKKdec (QPKK-{AMC}; not fully specified (residue 4); printed as QPKKdec; also: decanoyl-lysine (which Lys not given here); UniProt P04637 317-320, looked up, fragment) | 154.30 nM and 187.50 nM |
| QPKKmyr (QPKK-{AMC}; not fully specified (residue 4); printed as QPKKmyr; also: myristoyl-lysine (which Lys not given here); UniProt P04637 317-320, looked up, fragment) | 400.39 nM and 496.09 nM |
| QPKKoct (QPKK-{AMC}; not fully specified (residue 4); printed as QPKKoct; also: octanoyl-lysine (which Lys not given here); UniProt P04637 317-320, looked up, fragment) | 53.71 nM and 69.34 nM |
